Assay results: a protein production outcome set (Wang et al. 2014)

Assay: label from the status in PepcDB records

Row | Sequence | protein production
1 | MPLCLRNAQQDDTQRLSQIARQTFALACPPDTPATEIEAFIQENLLPEHFSALLEAPGKQLRVLLDDNRVIGYSLVNLHPQDLGVAGADGIAELTRCYLDAAHHGSGAAQFLLAQTLAQQPGPLRLTVNEHNARAIRFYQRNGFVRVGETLFPCGADLHRDWVMLRR | failed
2 | IEFESRTTDEGVAVVRPAGRLNMVAAPRLRELLRDVVDGGTTCVVVDLSATDFIDSSGLGALIAGLKAARQAGGDLRIAQPTEQVETVLALTNLNRVLRTHDSVDAAFD | failed
3 | MMIDPELRPAFLPAGKLRAAINLGNPILAGTDAAGQAVGVSVDLAREFARRLNAGIELRVFDTAGQSVDAVTREEADIGFFAIDPARGAGIAFTGPYVLIEGAYLVRDDSPLQANEDVDRAGKRVTVGKGSAYDLHLTRALQHAEIVRAASSQAVVDTFLARRLDVAAGVKQQLQADARRVGGVRLLPGRFMVIRQAMGLPKARGDAAAACLDAFVESMKGNGFVAQALARHGLEHHHHHH | failed
4 | MMELHDLAEDLPSKWTEIMAVAEKAFRAFAELDAVKRELAESENAQ | not failed
5 | MAYDIERYLDIRGAGDPTYGPTGELAFTLGTTGTAQVWALGAPGAWPTQLTFHDERVQWASFSPTREELAYGMDTGGDEFTQLHRVSGDGSEDVQLTAFPDAKHDWGGWSHDGDRIAYTANRRDASRFDVYVQGRDEAGANADCVRVGDTFDLPSVVGWSPSDDRLLVVDTHSNFDQDVAVLDVDTGEITRATAGLDADTRFSWVAWAPDGGGVYVTTDHDADTRYLGLLDPETGAISRVADGGDWPIEAVVTAHDAGRLAYVRNRDGYSELTIADAAGTTLTEQPTPELPDGVIRGLSWGPDGDTLAVVVSAATENPNVFVVDVATGAATQWTNAATAGIPKSTFREPELVRYETFDGREIPALFTRPDGDGPHPVIVDFHGGPEGQRRPSFLSLRQYFVDNGYAVFEPNVRGSSGYGATYMNLDNVRNRMDAVADGKAGVEWLTARTDIDADRVVAYGGSYGGFMVLASLTEYPELWAAGVDIVGIANFVTFLENTGDWRREHRESEYGSLDADREFLESISPTNNADRIRAPLLVLHGANDPRVPVGEAERIVEQASAHVPVEKHVFDDEGHGFSKRANKQAAYRAVVDFLDDHA | failed
6 | MLSFRARLFLAFALLWLLFLGGGWYLAGRSVDQALKRRLEATLAQDALRAAEAYQKGQAGALLTTGGVYLHLYAQDGTPIALTRPDHRLPPERLRRAGPTPEVLWEEGFAAALVATPLGLLVLTAETSPIEAALEALREALLRAFLLLSPLGLALVYLTARLAARPLEAVAREITRRSPDRLDPVPHRLPQDEFGRMVEAVNALLQALKEAKERERAFLAEASHELRTPLTVLLGHLDRLGRNPQDLEALRTARATAERMRRLVEDLLALARGEVERNLNLHIVDLGEVAREAALEHGVAAEAESAEVLGDPDRLLQLLRNLVANAVRAAGKEGVRVRVRREADHALLEVEDSGPGIPEDLLPRLFQRFARGPGGGTGLGLAIAHAIAKAHGGEIAVESRPGRTVFRVRLPLLEEEA | failed
7 | NGQAITLASKHYGSVNSAADLKGMVLGIPFEYSVHALLLRDYLVSNAVDPIADLELRLLRPADMVAQLTVEGIDGFIGPGPFNERAISNGSGRIWLLTKQLWDKHPCCAVAMAKEWKAEHPTAAQGVLNALEEASAILSNPA | failed
8 | MTKVNPYAAGARGLCPHCGEGYLFDGFLKVAPRCEACGFELGKHETGDGAATFVILIAGAICAFGALFSMFAWNWPVWVSLVVWLPAVVAISLGLMRPAKGLMVAAQIAQKASEAGRDHV | failed
9 | MTLEIRPAVPADAEQILAFIIELADYERARHEVVTDVEGIRRSLFAEGSPTRALMCLSEGRPIGYAVYFYSYSTWLGRNGIYLEDLYVTPEYRGVGAGRRLLRELAREAVANDCGRLEWSVLDWNQPAIDFYRSIGALPQDEWVRYRLDGEALRKMAE | not failed
10 | MTLTKITAGKDDPDTGFAIATYNIHSCLGTDGAFRPDRVAQAIRALDADVIGLQEVGWALRGPSGFDQFAFLERETGYTVIPGLVRHHANAHFGNAILSRHPVESVAPLDLSLPYHSPRGGIDARIRVKGRSVRLINVHLGLIPLERRIQIRRIGLRLLDGWRGPALVCGDLNHWRRTSPAMQRLHRLLPGGVTGQTYPSALPTMMFDRILATGDLHLENHQVIRTEGTRVASDHLPLMAWFRFEGADVLSEDAA | failed
11 | MTTIVPTSEENPFLAVVRFTSQLAWADAGPEAAEPEITRLCREAEESMVAEKWLELSSLMVTSAELVSSKISEKDLECTYTIICSIVKNAKSPEQVLEMVKAIASKVAQQPSDKASLRLKILFNLYNLVDHPYARFQVYMKALTLAVDGKVTEYIVSSFKKIDNFLKEWNIDIKDQRELFLAIANVLKENKSLVNESLKFLTKYLATFSNEDAQVLDEAKEEAVRAVIEFVKASSIFQCDLLDLPAVAQLEKDAKYAPVYQLLKIFLTQRLNAYTEFQNANSGFLQSYGLSNEDCVTKMRLLSLVDLASDESGKIPYTSIKDTLQVNEQDVELWIVKAITAKLIESALPNVNLGQSNGNLSEQSLRLGSIITTIESNKVTEEGSQASSSSAAAIQGLSVR | failed
12 | MNFQRFKAIVKKEVIQLKRDRASFGIAIMMPIVMIFLFGYAVNTELSNISMTVLDQSNSIESRELIQSFQNTGYFKVVSRVKSIEEVREKMDKGKVHAAIVIPPDFSNKLQMREESNVQLLVDGSDPTTARTAFSSGVVSGQQYGMKKLQGFGEKTSSKFQEGGVNVNTRVLYNPNLRNQNFTIPGLIGLIMQNITILLTAFALVRERERGTIEQLTVSPLKAGEIILGKLVPYIFIGYIDFLFSLVLGIKWFNVPINGSIPLLLLLGFAFVICALAIGILISTISKTQLQAMQLTILVLLPSILLSGFVFPREAMPKVIQLIGNVLPLTYFLNILRGIITKGVGVQYLSRDIAAMCCLAVILLTLSIVRFRAKPYNS | failed
13 | MNELILLRQLAENQQYPSLLELAQSLWYDSGNPAVLPLLATANAHMGLKENTQALYQQSLKHFDVLDVDARCDLAVVLIVMQRIDDAIKMLSDILMEQGNHALALARLAYCYLASGRLAEAQHFFEKSLIITPERFIVHRNLVAVYIAQNELNQAQKQLDSATEVLVNYHKVGDPLYQQYWFQLNTTQLQLWVVQGLFCPAEEWLTQLSVRQQAGDYDEAVLVQYVKSYSQVLAEKNFHQQATNILREYLKQYNNNVELCMALAELAQVQGHFMQAISLLQKALKKDEGNSDLWVQLSTACLHRFDKKARKAAVRAVSLAEALEITDEQSLVLIKMKQAQANNALAEVECQEQNFEVSEKLYRDILAEHSHFLPALQGLGQQQMQQGNIDEAVALFERIKDIDLLKGCSALINVRRFPDDVEALDKMAIAANKPSMEGSLRAGILFQLAAAWEKKKDYNKAFRFAEQANNASKKFLSYNAQKHREDCARLRACFNKTLYQHRPNYGIESTIPVYVLGMPRSGTTLVEQILSGHSDIFGAGELGVIPQVIQGINRWERHTGSGRQYPDCIDDFNADTIAGIANNMLKELQELAAETKPESKYVVDKMPHNFENIGLIKFLFPNAKIISVRRDPRDIAMSNYFTDYQAKHGGMGFAYDLEHIGEQLADHNLLMHHWQQTFPDEILEINYEDVVDDIEGCARKMLSYIGVNWQPKVLKFNELVRTVKTASVWQVRQPIYKTSKGKWLRYQTRLTPLIKGTNAKIVSHPITDLLTLPEPGFLTDGVALYKEGKLDDAEMCFKKMLHHNPGHAACHYMIGLVYLTKNHAQDGIRHFEKAVASCPWQKEWRQNLLKAYEQEGETNKIAAFKKGNQRTTANDANNAVTYDEHFTSDAFTTKTTVSQ | failed
14 | MCWVCGENLQAQPYMFRNVVMSDGLSGLLVNAIYKDSEGFIWLGTDNGLDRFDGVKVKHFEFRGVDSGRKKRVNCITETDNKQLWIGNGIGLWRLNRSGSELQRIVPEKIDCAVNALLADGDVLYIGTERGLFIQKDGQLLQVQTDKNMLAACNRIMDLCLNEDKSVLWLATVQGLFSYSLKDGQINSWHFRENVPEADYFRCLTRIGETLYLGTMSQGVVCFDIPKQTFAHTVSLGCDVISDISGDGKETVYIATDGNGVHFLSHKDRKVVRRFFHDVNDKEGIRSNSIYSLLVDDRGAVWVGHFQAGLDYSLYQNGLFRTYAYPPQFNSANLSIRSFVNRGPEKVIGSRDGLFYINEATGIVKSFVKPVLTSDLILTICFYEGEYYIGTYGGGMMVLNPQTLSLKYFTQGDTELFQKGHIFCVKPDNRGNLWIGTSQGLFCYNGQTKQIKNFTSTNSQLPEGNVYEVSFDSTGKGWIATETGMCIYDPASQSLRSNVFPEGFVHKDKVRTIYEDAEHNLYFIREKGSLFTSTLTMDHFRNQSVLSTLPDNSLMSITEDNQGWLWVGCNDGLLRIKEEGEEYDSFTFNDGVPGPTFTNGAAYKDERGLLWFGNTKGLIYVDPKQVDEVRGKVRPIVFTDILANGVSINKSSLKYNQNNLTFCFTDFAYGLPSALLYEYKLEGADSDWKLLTAQSEVSYYGLSSGTYTFCVRIPGNEQSMAIYKVTVQPMIPWWGWVILAISIILIVVLVRYYVRKSAPLVTEVHEISSEEEEEEEKTAEPHPAEEKYKANRMSEAECKELHDRLVAYVEKEKPYINPDLKMGELAAALHTSSHSLSYLLNQYLNQSYYDFINEYRVAQFKKMVEDSDYSRYTLTALAELCGFSSRASFFRSFKKSTGVTPNEYIRSIGGTAKDE | failed
15 | MKAFTVHQAKTHLSRLLKAVEEGEEVVILRGKTPVARLVPYRKGKRPLGFVPGKLPESFFEPLPEEELALWEGATS | not failed
16 | GSESFDILTDPAQAKEVGTALGIFHQLLSDLSPSQLVDTLPGFHHTPIYLQQYQRALAQNPKLTGSLGPEINHCQRVIKTWLDQCGVLETAKAQGQLPLRLMHGDPKVNNILFDRQSGKAVSVIDLDTTKPGLIHYDLGDCLRSGCNLLGEETENWSAVEFDLDLCRAILEGYLPQCQHFLTAADYDYLCPAIVLISFELGLRFFTDYLNGDRYFKVKYPEHNLIRALVQFQLASHIQSQEDAIRRMIEDIRG | failed
17 | MFFLLLTPFNAAASETNSDDATADAKNLSGTNAADTVVSQIIGASVYIEGEIYNNEYATISVTTKNEGDKSSEGHIIVAFPNNEEILSKEGSGDRVDIYPSGSSIETKDGTKIDSSEYLFVDLVKYDWETGKNETLNLKVKPNKGSEEIVYLVRAELMNDATGDYERYPGILSESSDVDQQGWYVYNNSFGVSGDPDLMIEDISWEPENPHENENVTFKVTLKNVGLASSGNCSVKCYLDGNEISFSTVSGLEADSTTSFTFNWVPTSSGSMDLKVVVDSEGQFVEFTEENNEKTGIFKVISYTNSSSPSSPSPGSGSSSSSSSSGGGAGGSPEPASNVEIKELAQQFVSNGNHAKFIFAKNVTSIAYIEFDPKKTVGKTTTIVETLKGKSTLVTELPTGKVYKNTNIWVGNEGTASSENIENAVVGFKVEKTWINSNGVDSSSVKLWAFEDEKWVELPTSQTDEDEDYVYYEADTPGFASFSIMALYPEENTEGTSLPLGSYVEDKDTKAVSETSEEESEVVDSEAGENNSGSMKKGLLAIGMLAAVILAGYVISRKQD | failed
18 | MNSPANITDPLVLFMPSGKRGRFPVGTPVLDAARQLGVYVESVCGGRATCGRCQIEVQEGNFAKHKIVSSNDHISPKGPKEERYERVRGLPERRRLSCSAQILGDLVIDVPQDTVINAQTIRKDADTRVIARDTAIRMCYVEIEEPDMHKPLGDLDRLKIALMKDWGFKNLEFDFYLLPQVQGILRKGNWTATAAIHKDADSDIARVIALWPGLKNEAYGLACDIGSTTIAMHLVSLLSGRVAASSGTSNPQIRFGEDLMSRVSYVMMNPDGREGMTVAVREAISSLVDKVCAEGNVQRNDILDSVFVGNPIMHHLFLGIDPTELGGAPFALAVSGAVRIKASDIGLKLNQGARLYMLPCIAGHVGADAAAVTLSEGPHRQDEMMLIVDVGTNAEIVLGNRARVVAASSPTGPAFEGAEISGGQRAAPGAIERVRIDPDTLEPKYRVIGSELWSDEPGFLDSVQATGVTGICGSGIIEIVAEMYLAGIISEDGVVDGSLAARSPRVTANGRTFSYVLKEGEPKITITQTDVRAIQLAKAALYAGTKLLMEKQNTEHVDRIHFAGAFGSFIDPKYAMVLGLIPDCDLDKVSAVGNAAGAGARMALLNRGYRREIEETVSQIEKIETALEPKFQEHFVYAMALPNKVDPFPKLSAAVKLPPRKTVSEDGIAGDATPRRRSREGHAARRSRE | failed
